Assay in all cases: EMSA
Data set [1] deals with CcpA (Streptococcus pneumoniae D39) (UniProt A0A0H2ZQ65). Particulars: 5X FY buffer: 20 mM Tris-HCl pH 7.5, 30 mM KCl, 1 mM DTT, 1 mM EDTA, 10% glycerol; room temperature 20 min, 20 ul, ~30 ng DNA, 0.1-0.5 uM protein; 8%.
Data set [2] concerns the target T1, GlnR (Streptococcus pneumoniae D39) (UniProt A0A0H2ZRB1).
T1 sequence: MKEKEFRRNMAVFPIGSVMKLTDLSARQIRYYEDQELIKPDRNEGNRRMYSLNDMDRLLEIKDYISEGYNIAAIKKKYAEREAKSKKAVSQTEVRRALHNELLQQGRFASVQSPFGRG
To be noted: 5X FY buffer: 20 mM Tris-HCl pH 7.5, 30 mM KCl, 1 mM DTT, 1 mM EDTA, 10% glycerol; room temperature 20 min, 20 ul, ~30 ng DNA, 0.1-0.5 uM protein; 8%.

Data set [3] deals with T2, GntR (Streptococcus pneumoniae D39) (UniProt A0A0H2ZQS8).
T2 sequence: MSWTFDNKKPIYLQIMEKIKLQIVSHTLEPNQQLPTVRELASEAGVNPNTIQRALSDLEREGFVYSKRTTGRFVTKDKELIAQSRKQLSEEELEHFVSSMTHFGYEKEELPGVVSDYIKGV
To be noted: 5X FY buffer: 20 mM Tris-HCl pH 7.5, 30 mM KCl, 1 mM DTT, 1 mM EDTA, 10% glycerol; room temperature 20 min, 20 ul, ~30 ng DNA, 0.1-0.5 uM protein; 8%.

In data set [4] the test system is CcpA (Streptococcus pneumoniae D39). Particulars: 5X FY buffer: 20 mM Tris-HCl pH 7.5, 30 mM KCl, 1 mM DTT, 1 mM EDTA, 10% glycerol, room temperature 20 min, 20 ul, ~30 ng DNA, 0.1-0.5 uM protein, 8%.
Data set [5] concerns GlnR (Streptococcus pneumoniae D39). Particulars: 5X FY buffer: 20 mM Tris-HCl pH 7.5, 30 mM KCl, 1 mM DTT, 1 mM EDTA, 10% glycerol, room temperature 20 min, 20 ul, ~30 ng DNA, 0.1-0.5 uM protein, 8%.

“And” between values parts separate entries of the source, which are not always exact repeats. Equal entries are not always repeated.

Take “AAGTGCAAAATCCCTATTTTTACACTTTCTTTTCTAAAACAGTCTATATTTTATTTCAAACTGTATTATATTTTTGAAAAAAATAAAGTCCTTTT (double strand) [PpflB(cre1-)]”: the binding entry in data set [1] and in data set [2] was “no binding” throughout.

Regarding “ATGACAGAAGAAATCAAAAATCTGCAGGCACAGGATTATGATGCCAGTCAAATTCAAGTTTTAGAGGGCTTAGAGGCTGTTCGTATGCGTCCAGG (double strand) [gyrB]”, the binding entry in data set [1] and in data set [2] was “no binding” in each case.

What is called Kd is a measure of binding affinity in units of concentration. Turning to “CAGTTTGAAATAAAATATAGACTGTTTTAGAAAAGAAAGTGTAAAAATAGGGATTTTGCACTTGTTGAAATCGGTTACTTTATGGTATACTTGTC (double strand) [PpflB]”, the binding result in data set [3] is given as “binds”. The Kd in data set [1] is 1270 nM and 350 nM; in data set [2], 310 nM.

For “GTGAAAATTTCGTTTTCATATTTCTACTTATTCCATTCTATCACTAATTGTAAACACTTTCAAGTGTTTTTTGAAGATTGATTGAAAAAATTTCA (double strand) [PccpA]”, the binding result is “no binding” in data set [3], “binds” in data set [1] and “binds” in data set [2].

“GTTACCTTCCTTGAAAACGTTTTATAGTTTTATTATATCACGACTTGAAGGAAAAACAAGATTTTTGCCTATTTTTTAGAAAGCAATCTGTTTTTC (double strand) [PpflA]”: the binding result in data set [3] was “no binding”; in data set [1] it was “binds”; in data set [2], “binds”.

With PpflB, the Kd was found to be 350 nM in data set [4] (10 mM sodium formate), 1270 nM in data set [4] (no formate), 790 nM in data set [5] (10 mM sodium formate) and 310 nM in data set [5] (no formate).

“TAATCTGATGATAGATTGAAAATGAAATTGAAAAACAGATTGCTTTCTAAAAAATAGGCAAAAATCTTGTTTTTCCTTCAAGTCGTGATATAATAA (double strand) [PpflA(cre1-)]”: the binding entry in data set [1] and in data set [2] was “binds more weakly” in each case.

(Values after PMC5327383, “Pneumococcal galactose catabolism is controlled by multiple regulators acting on pyruvate formate lyase” (Scientific Reports, 2017).)
